Laboratory results published in publication PMC9032829.
Several values for one entry are separate records, joined by “and”; a condition that tells them apart may be missing. Identical values can stand only once.

Biological target: entire receptor binding domain (RBD) of SARS-CoV-2 Spike protein (SARS-CoV-2) (UniProt P0DTC2)
Assay: SPR

“soluble αvβ3 integrin (from UniProt P06756;P05106) (complex)” was tested, and the Kd was 6.3 nM and 59.3 nM.
